The target in experiment [1] is T1, Biotinylated human ICOS protein (human, UniProt Q9Y6W8 21-140, limits assumed, biotinylated (sites not given)).
T1 construct: Captured on the NLC chip in the avidity SPR
T1 sequence: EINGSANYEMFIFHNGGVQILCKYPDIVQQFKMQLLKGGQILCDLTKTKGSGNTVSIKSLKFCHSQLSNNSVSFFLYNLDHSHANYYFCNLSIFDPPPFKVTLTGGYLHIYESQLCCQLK
Briefly: SPR ProteOn avidity format, biotinylated human ICOS on NLC chip; calculated on-rate. On the procedure:
Biotinylated human ICOS protein diluted at 7.5 μg/mL in running buffer (1× HBS-EP+ Buffer Technova, cat. No. H8022) was captured on a NLC sensor chip (Bio-Rad, cat No 1765021). The surface was then blocked using biocytin (Sigma Aldrich, cat No B1758) at 1 mg/mL.
The assay was carried out at 25° C.
The buffer injection (i.e. 0 nM) was used to double reference the sensorgrams. […]

Experiment [2] deals with T2, human ICOS expressed on cells (human, UniProt Q9Y6W8 21-199).
T2 construct: also called CHO-S cells transfected with human ICOS; hICOS
T2 sequence: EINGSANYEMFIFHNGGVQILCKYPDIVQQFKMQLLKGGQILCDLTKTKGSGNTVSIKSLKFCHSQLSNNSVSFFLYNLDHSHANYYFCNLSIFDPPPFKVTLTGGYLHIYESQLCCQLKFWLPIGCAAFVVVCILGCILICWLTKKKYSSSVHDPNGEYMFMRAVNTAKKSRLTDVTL
Briefly: Flow cytometry on CHO-S human ICOS cells, anti-human IgG AF647, N=1. On the procedure:
(§1) CHO—S cells transfected with either human ICOS or mouse ICOS were resuspended in FACS buffer (PBS+1% w/v BSA+0.1% w/v sodium azide) and transferred to a 96-well V-bottom plate (Greiner) at a density of 1×10⁵ cells per well. mAb and mAb² were titrated in FACS buffer, 1 in 3 dilution across 11 points from a starting working concentration of 400 nM. Plates were centrifuged at 300×g for 3 minutes, supernatant discarded and 50 μL mAb or mAb² solution were added to cells and incubated at 4° C. for 1 hour. Cells were washed with 150 μL of PBS and centrifuged at 300×g for 3 minutes, supernatant was discarded and cell pellet resuspended in 150 μL PBS added. This wash step was repeated twice. Bound mAb or mAb² was detected by addition of 50 μL of anti-human 647 (Jackson ImmunoResearch) diluted to 3 ug/ml in FACS buffer. Cells were incubated for 1 hour at 4° C. in the dark. Cells were washed with 150 μL of PBS and centrifuged at 300 g for 3 minutes, supernatant was discarded and cell pellet resuspended in 150 μL PBS added. This wash step was repeated twice. Cells were fixed with 25 μL 4% v/v paraformaldehyde, incubated for 20 minutes at 4° C., cells were pelleted by centrifugation at 300×g and the supernatant discarded. […] AlexaFluor 647 signal intensity (geometric mean) was measured by flow cytometry using a Beckman Coulter CytoFLEX instrument.

The target in experiment [3] is T3, human ICOS-mFc (Chimerigen) (human, UniProt Q9Y6W8 21-140).
T3 construct: Bought; also called recombinant human ICOS protein; hICOS; not shown: mouse Fc of the bought fusion
T3 sequence: T1 sequence
Briefly: HTRF, human ICOS-mFc, competitor human B7-H2-Alexa 647, average. The method, then:
(§2) 5 μl of human ICOS-mFc (Chimerigen) at 20 nM (5 nM final) or 5 ul of mouse ICOS-mFc (Chimerigen) at 4 nM (1 nM final) were added to relevant assay wells. Plate was incubated for 1 hour (hr) at room temperature (RT).
(§3) After incubation, assay was read on Envision plate reader (Perkin Elmer) using a standard HTRF protocol. 620 nm and 665 nm channel values were exported to Microsoft Excel and % Delta-F and % Neutralisation calculations performed. Titration curves and IC50 values [M] were plotted using Graphpad (Prism). IC50 values were calculated by first transforming the data using equation X=Log(X). The transformed data was then fitted using nonlinear regression, using fitting algorithm, log (inhibitor) vs. response—variable slope (four parameters).
(In general: In TR-FRET formats the signal depends on donor and acceptor labels being close together.)

The target in experiment [4] is T3, human ICOS-mFc (Chimerigen). Briefly: HTRF, human ICOS-mFc, competitor human B7-H2-Alexa 647, n2. On the procedure:
as §2, §3

Experiment [5] deals with T4, mouse ICOS expressed on CHO cells (mouse, UniProt Q9WVS0 21-200).
T4 construct: also called CHO-S cells transfected with mouse ICOS; mICOS
T4 sequence (looked up): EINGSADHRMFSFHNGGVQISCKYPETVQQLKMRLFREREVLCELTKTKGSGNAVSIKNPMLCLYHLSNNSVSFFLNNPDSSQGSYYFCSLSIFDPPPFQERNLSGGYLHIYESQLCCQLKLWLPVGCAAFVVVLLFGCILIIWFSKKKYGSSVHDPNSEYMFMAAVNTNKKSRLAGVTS
Briefly: Flow cytometry on CHO-S mouse ICOS cells, anti-human IgG AF647, N=1. On the procedure:
as §1

Experiment [6] addresses T2, human ICOS expressed on cells. Briefly: Flow cytometry on CHO-S human ICOS cells, anti-human IgG AF647, mean. On the procedure:
as §1
(In general: Flow cytometry measures light scatter and fluorescence of single cells or particles in a stream.)

Experiment [7] concerns the target T4, mouse ICOS expressed on CHO cells. Briefly: Flow cytometry on CHO-S mouse ICOS cells, anti-human IgG AF647, mean. The method, then: as §1

As a reminder, the kon is the rate constant with which the complex forms. The EC50 is the midpoint of the concentration-response curve. Higher therefore signals lower potency in that assay. One may read the IC50 as the concentration needed to halve the response being measured. Low values mean greater potency in that assay, high ones weaker potency in that assay.

B1: STIM001 (antibody, human IgG1, kappa)
heavy: not shown
light: DIVMTQSPLSLPVTPGEPASISCRSSQSLLHSNEYNYLDWYLQKPGQSPQLLIFLGSNRASGVPDRFSGSGSGTDFTLKITRVEAEDVGIYYCMQSLQTPLTFGGGTKVEIKRTVAAPSVFIFPPSDEQLKSGTASVVCLLNNFYPREAKVQWKVDNALQSGNSQESVTEQDSKDSTYSLSSTLTLSKADYEKHKVYACEVTHQGLSSPVTKSFNRGEC
notes: Anti-ICOS monospecific antibody, tested as human IgG1; also called STIM001 monoclonal IgG1 antibody
With B1, in experiment [1], the kon was 7990 M⁻¹ s⁻¹. Further, the concentration giving a half-maximal response (EC50) amounted to 30.1 nM in experiment [2], 25.7 nM in experiment [5], 21.2 nM in experiment [6] and 16.9 nM in experiment [7]. The IC50 in experiment [3] is 1.47 nM; in experiment [4], 1.12 nM.

B2: STIM003 (antibody, human IgG1, kappa)
heavy: not shown
light: EIVLTQSPGTLSLSPGERATLSCRASQSVSRSYLAWYQQKRGQAPRLLIYGASSRATGIPDRFSGDGSGTDFTLSISRLEPEDFAVYYCHQYDMSPFTFGPGTKVDIKRTVAAPSVFIFPPSDEQLKSGTASVVCLLNNFYPREAKVQWKVDNALQSGNSQESVTEQDSKDSTYSLSSTLTLSKADYEKHKVYACEVTHQGLSSPVTKSFNRGEC
notes: Anti-ICOS monospecific antibody, tested as human IgG1; also called STIM003 monoclonal IgG1 antibody
With B2, in experiment [1], the kon is 267000 M⁻¹ s⁻¹. For the same molecule, the half-maximal effective concentration (EC50) stood at 7.22 nM in experiment [2], 6.8 nM in experiment [5], 5.53 nM in experiment [6] and 5.42 nM in experiment [7]. Besides, the values for the IC50 in experiment [3] and in experiment [4] were 0.53 nM and 0.45 nM, respectively.

These data come from patent US20240343810A1 (published 2024).
